Source: patent US20170291942A1

Target: IL-6 protein (human) (UniProt P05231)
Assay: Luminex based assay, biotin-IL-6 binding to solid phase sIL-6R/gp80

Sequence of UniProt P05231 (P05231 30-212 limits assumed): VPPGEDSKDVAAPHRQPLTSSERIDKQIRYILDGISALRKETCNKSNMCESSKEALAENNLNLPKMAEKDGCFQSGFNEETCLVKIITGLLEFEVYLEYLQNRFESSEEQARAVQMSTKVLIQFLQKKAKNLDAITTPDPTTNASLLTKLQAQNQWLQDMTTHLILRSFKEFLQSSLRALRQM

percent inhibition of bound biotin-IL-6: 62%
Substance: CLB.IL-6/16 (antibody)
